For assay [1], the target named is T1, hVar3 (RG3036) (human, UniProt Q9UEW3 147-520).
T1 construct: Human MARCO His-CLD-SRCR with Q452D, Y472S and K473S (already in the entry); also called recombinant human SRCR MARCO hVar3 protein
Description: ELISA on recombinant hVar3 protein, A450. In general terms: An ELISA detects its analyte on a solid surface through an enzyme-linked reagent.

Assay [2] has as its target T2, recombinant cynomolgus MARCO protein (cynomolgus, UniProt A0A2K5X0Z2 65-519).
T2 construct: Construct not described; also called cyno MARCO; cynoMARCO
T2 sequence: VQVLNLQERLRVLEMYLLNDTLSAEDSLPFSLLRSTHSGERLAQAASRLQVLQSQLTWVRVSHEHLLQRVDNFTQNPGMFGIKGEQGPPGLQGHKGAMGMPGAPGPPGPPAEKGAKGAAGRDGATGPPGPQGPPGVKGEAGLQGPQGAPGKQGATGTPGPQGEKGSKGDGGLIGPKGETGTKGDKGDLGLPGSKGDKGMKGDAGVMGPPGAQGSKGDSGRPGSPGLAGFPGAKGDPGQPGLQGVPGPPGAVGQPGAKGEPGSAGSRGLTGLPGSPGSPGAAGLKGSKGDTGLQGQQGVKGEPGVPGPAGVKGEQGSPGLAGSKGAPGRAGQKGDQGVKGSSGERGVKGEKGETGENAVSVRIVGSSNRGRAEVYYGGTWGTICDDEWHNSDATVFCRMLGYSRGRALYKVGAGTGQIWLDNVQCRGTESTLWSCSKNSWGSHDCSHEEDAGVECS
Nature of the assay: Biacore (SPR), recombinant cyno MARCO. A general note: In SPR one partner is held on a chip, and binding of the other changes the refractive index at the surface.

Assay [3] has as its target T3, N-terminally polyhistidine tagged human MARCO ECD (147-520), recombinant (human, UniProt Q9UEW3 147-520).
T3 construct: also called PI-RG-3000; recombinant human MARCO; not shown: N-terminal polyhistidine tag
T3 sequence: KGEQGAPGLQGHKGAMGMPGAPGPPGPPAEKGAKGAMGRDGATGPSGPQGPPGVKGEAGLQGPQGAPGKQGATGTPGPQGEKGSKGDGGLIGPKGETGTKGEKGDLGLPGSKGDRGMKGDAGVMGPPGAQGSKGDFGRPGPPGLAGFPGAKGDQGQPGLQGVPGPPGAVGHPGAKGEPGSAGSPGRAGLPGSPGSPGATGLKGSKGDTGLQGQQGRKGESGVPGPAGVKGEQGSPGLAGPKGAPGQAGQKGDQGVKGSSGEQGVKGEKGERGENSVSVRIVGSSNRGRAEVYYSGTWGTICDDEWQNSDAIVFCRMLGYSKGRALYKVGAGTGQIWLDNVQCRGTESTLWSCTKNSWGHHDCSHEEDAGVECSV
Description: Biacore (SPR), recombinant human MARCO. An outline of the steps: (§1)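 Antibodies were captured by anti-mouse Fc mAb amine-coupled to a CM4 chip (4500 RU target). Running buffer was 10 mM HEPES pH 7.4, 150 mM NaCl, 3 mM EDTA, 0.05% surfactant P20. Injections were at 0.625–10 nM with 90 s association and 600 s dissociation, and constants were fitted in BIAevaluation 3.1.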

The target of assay [4] is T3, N-terminally polyhistidine tagged human …. Description: Biacore (SPR), binding affinity to human MARCO. An outline of the steps:
as §1

For assay [5], the target named is T4, Human Macrophage Receptor with Collagenous Structure (MARCO), full length, on cells (human, UniProt Q9UEW3 1-520).
T4 construct: the cell type is named under assay; also called huMARCO; HuMARCO
T4 sequence: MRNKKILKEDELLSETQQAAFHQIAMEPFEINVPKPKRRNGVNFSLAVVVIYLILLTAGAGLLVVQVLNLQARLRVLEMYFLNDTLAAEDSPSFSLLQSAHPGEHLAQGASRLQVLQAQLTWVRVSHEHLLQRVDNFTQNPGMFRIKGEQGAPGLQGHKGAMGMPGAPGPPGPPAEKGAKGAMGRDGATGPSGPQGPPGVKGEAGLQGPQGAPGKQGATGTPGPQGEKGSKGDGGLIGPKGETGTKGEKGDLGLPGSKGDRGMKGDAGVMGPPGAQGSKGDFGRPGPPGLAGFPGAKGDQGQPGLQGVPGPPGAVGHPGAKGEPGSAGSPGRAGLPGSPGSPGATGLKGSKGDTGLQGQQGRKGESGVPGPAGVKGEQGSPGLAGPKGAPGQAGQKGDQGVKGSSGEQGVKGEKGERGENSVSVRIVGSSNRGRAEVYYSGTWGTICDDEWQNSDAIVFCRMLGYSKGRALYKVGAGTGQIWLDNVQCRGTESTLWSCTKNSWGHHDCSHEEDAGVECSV
Description: flow cytometry, cells overexpressing human MARCO; hu (first of hu/cyn).

Assay [6] addresses T5, Cynomolgus MARCO, full length, on cells (cynomolgus, UniProt A0A2K5X0Z2 1-519).
T5 construct: whole, on cells; also called cyno MARCO; CyMARCO
T5 sequence: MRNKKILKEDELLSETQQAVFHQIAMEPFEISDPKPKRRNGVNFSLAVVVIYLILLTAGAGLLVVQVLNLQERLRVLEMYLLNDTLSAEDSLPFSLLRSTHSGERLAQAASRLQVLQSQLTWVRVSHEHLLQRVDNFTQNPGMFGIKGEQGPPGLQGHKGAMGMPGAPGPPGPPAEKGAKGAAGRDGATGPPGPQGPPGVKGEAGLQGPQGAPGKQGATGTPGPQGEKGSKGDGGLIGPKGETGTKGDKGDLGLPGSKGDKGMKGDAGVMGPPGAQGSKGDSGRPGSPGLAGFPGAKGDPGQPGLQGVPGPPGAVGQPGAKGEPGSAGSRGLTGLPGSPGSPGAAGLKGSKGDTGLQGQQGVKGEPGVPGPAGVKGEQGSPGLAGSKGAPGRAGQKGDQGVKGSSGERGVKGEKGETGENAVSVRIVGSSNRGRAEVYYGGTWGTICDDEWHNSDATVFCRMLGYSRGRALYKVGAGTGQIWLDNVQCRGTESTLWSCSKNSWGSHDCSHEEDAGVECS
Description: flow cytometry, cells overexpressing cyno MARCO; cyn (second of hu/cyn). For orientation: In flow cytometry, cells or beads pass a laser one at a time.

Assay [7] has as its target T5, Cynomolgus MARCO, full length, on cells. Description: flow cytometry, 293T CyMARCO cells. An outline of the steps:
(§2)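 HEK293T cells expressing human or cynomolgus MARCO were tested for antibody binding by flow cytometry. At 100,000 cells/well, Zombie NIR-stained cells received an 8-point three-fold dilution of antibody from 100 nM in D-PBS/2% FBS/2 mM EDTA for 1 hr on ice, then APC goat anti-mouse IgG for 30 min on ice. Geometric mean fluorescence intensities were analysed in FlowJo and Prism.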

In assay [8] the target is T4, Human Macrophage Receptor with …. Nature of the assay: flow cytometry, 293T HuMARCO cells. Summed up:
as §2

In assay [9] the target is T1, hVar3 (RG3036). Nature of the assay: ELISA on hVar3.

Numbering of substitutions follows the chain as printed.

B1: PI-3019-AB (antibody, mouse IgG2a, kappa)
heavy: EVQLVESGGGLVQPGSSLKLSCVASKFTFSNYGMNWIRQAPKKGLEWIALIYYNSNNKYYADSVKGRFTISRDNSKNTLYLEMNSLRSEDTAMYYCAKSLTGGSDYFDSWGQGVMVTVSSAKTTAPSVYPLAPVCGDTTGSSVTLGCLVKGYFPEPVTLTWNSGSLSSGVHTFPAVLQSDLYTLSSSVTVTSSTWPSQSITCNVAHPASSTKVDKKIEPRGPTIKPCPPCKCPAPNLLGGPSVFIFPPKIKDVLMISLSPIVTCVVVDVSEDDPDVQISWFVNNVEVHTAQTQTHREDYNSTLRVVSALPIQHQDWMSGKEFKCKVNNKDLPAPIERTISKPKGSVRAPQVYVLPPPEEEMTKKQVTLTCMVTDFMPEDIYVEWTNNGKTELNYKNTEPVLDSDGSYFMYSKLRVEKKNWVERNSYSCSVVHEGLHNHHTTKSFSRTPGK
light: DVQMTQSPSYLAASPGESVSISCKASKSIGTFLAWYQEKPEKTNKLLIYSGSTLQSGTPSRFSGSGSGTDFTLTIRNLEPEDFAVYYCQQHDEYPFTFGSGTKLEIKRADAAPTVSIFPPSSEQLTSGGASVVCFLNNFYPKDINVKWKIDGSERQNGVLNSWTDQDSKDSTYSMSSTLTLTKDEYERHNSYTCEATHKTSTSPIVKSFNRNEC
As to B1, the binding result with hVar3 (RG3036) [1] is reported as “binds”.

B2: PI-3046-AB (antibody, human IgG4 S228P, kappa)
heavy: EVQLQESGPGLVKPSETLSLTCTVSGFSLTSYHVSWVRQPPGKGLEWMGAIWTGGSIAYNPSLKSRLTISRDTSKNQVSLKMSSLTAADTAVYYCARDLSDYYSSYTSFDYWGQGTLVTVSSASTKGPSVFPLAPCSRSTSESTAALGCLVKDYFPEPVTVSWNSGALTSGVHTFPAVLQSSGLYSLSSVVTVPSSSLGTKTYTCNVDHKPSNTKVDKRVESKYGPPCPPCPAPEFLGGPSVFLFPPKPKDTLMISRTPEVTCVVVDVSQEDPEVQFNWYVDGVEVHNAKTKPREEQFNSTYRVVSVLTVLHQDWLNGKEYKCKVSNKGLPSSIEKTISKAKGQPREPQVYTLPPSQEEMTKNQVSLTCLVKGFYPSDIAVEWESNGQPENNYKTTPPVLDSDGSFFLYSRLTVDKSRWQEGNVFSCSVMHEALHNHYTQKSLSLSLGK
light: DIQMTQSPSSLSASVGDRVTITCRASEGISNDLAWYQQKPGKAPKLLIYAASRLQSGVPSRFSGSGSGTDYTLTISSMQPEDFATYYCQQSYKYPLTFGQGTKLEIKRTVAAPSVFIFPPSDEQLKSGTASVVCLLNNFYPREAKVQWKVDNALQSGNSQESVTEQDSKDSTYSLSSTLTLSKADYEKHKVYACEVTHQGLSSPVTKSFNRGEC
The term Kd denotes a measure of binding affinity in units of concentration. By koff is commonly meant the rate constant with which the complex falls apart. What is called EC50 is the concentration giving half of the maximal effect. Lower therefore signals an effect from little substance. Consider B2, for which the Kd in assay [2] was determined as 1.1 nM; in assay [3], 0.78 nM; in assay [4] it was 0.78 nM. Further, in assay [3], the dissociation rate constant (koff) amounted to 0.000371 s⁻¹. Further, the EC50 was 0.821 nM in [5] and 1.07 nM in assay [6].

B3: PI-3047-AB (antibody, human IgG4 S228P, kappa)
heavy: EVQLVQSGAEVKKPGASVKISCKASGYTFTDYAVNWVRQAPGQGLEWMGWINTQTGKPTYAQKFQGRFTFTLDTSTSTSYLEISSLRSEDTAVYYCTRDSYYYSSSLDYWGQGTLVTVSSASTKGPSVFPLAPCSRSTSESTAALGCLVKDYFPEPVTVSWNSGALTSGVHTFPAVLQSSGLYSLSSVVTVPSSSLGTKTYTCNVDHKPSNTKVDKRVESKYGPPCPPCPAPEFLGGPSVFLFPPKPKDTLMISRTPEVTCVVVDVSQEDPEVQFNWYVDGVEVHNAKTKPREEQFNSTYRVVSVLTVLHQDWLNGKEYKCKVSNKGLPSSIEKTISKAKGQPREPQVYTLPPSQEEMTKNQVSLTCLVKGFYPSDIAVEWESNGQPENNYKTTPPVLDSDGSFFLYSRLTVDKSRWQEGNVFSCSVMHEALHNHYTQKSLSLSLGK
light: B2 light with E27A, S56D, Y71F, L96W
notes: Humanized PI-HX-3011, hIgG4
Consider B3, for which the results for the Kd in assay [2], in assay [3] and in [4] were 0.79 nM, 0.72 nM and 0.72 nM, respectively. In addition, in assay [3], the koff was determined as 0.000337 s⁻¹. For the same molecule, the EC50 stood at 0.796 nM in assay [5] and 1.39 nM in [6].

B4: PI-3048-AB (antibody, human IgG4 S228P, kappa)
heavy: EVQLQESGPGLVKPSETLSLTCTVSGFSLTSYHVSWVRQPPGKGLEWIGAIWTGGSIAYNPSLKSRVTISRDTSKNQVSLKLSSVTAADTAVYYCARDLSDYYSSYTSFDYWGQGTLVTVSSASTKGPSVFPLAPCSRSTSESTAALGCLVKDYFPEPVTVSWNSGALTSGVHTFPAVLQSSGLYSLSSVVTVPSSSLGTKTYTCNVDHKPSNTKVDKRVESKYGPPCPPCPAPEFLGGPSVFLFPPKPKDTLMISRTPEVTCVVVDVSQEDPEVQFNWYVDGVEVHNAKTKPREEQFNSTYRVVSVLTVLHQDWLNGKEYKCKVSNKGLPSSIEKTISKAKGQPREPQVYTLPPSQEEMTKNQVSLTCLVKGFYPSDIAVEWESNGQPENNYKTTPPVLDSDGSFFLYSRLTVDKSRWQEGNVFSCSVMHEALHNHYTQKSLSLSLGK
light: B2 light with S56D, M78L
For the molecule B4, the Kd stood at 1.81 nM in assay [2], 1.05 nM in [3] and 1.05 nM in assay [4]. For the same molecule, the koff in assay [3] was 0.000386 s⁻¹. The concentration for a half-maximal effect (EC50) in assay [5] is 0.721 nM; in assay [6] it was 2.39 nM.

B5: PI-HX-3001 (antibody, rat IgG2a, V domains shown)
VH: EVQLVESGGGLVKPGASLKLSCVASGFTFSDYWMNWVRQTPGKTMEWIGDIKDDGSYTNYTPSLKNRFTISRDNAKSTLYLQMNNVRSEDTGTYYCTSGGVFDYWGQGVMVTVSS
VL: EIVLTQSPTTMAASPGEMVTITCRASSSVNYMHWFQQKSGTSPKPWIYDTSKLASGVPDRFSGSGSGTSYSLTISSMEAEDAASYYCLQRSTFPPTFGAGTKLELK
notes: Rat IgG2a hybridoma antibody; also called PI-3006 (name of the recombinant form)
As for B5, the binding result in assay [7] and in assay [8] was “no binding” in each case.

B6: PI-3020-AB (antibody, human IgG4, kappa)
heavy: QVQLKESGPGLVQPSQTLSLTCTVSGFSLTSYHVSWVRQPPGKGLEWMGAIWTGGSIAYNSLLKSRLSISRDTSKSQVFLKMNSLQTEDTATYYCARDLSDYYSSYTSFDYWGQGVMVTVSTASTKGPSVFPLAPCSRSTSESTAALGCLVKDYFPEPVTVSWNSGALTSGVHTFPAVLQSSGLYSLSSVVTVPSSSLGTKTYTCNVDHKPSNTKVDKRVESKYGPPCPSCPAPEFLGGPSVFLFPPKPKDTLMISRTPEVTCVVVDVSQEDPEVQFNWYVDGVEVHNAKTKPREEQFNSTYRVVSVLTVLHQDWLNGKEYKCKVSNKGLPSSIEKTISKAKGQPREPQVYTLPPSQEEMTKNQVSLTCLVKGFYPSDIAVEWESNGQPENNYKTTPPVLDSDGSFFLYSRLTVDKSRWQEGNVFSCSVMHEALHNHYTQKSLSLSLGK
light: DIQMTQSPASLSTSLGETVSIECLASEGISNDLAWYQQKSGKSPQLLIYAASRLQDGVPSRFSGSGSGTRYSLKISGMQPEDEADYFCQQSYKYPLTFGSGTKLEIKRTVAAPSVFIFPPSDEQLKSGTASVVCLLNNFYPREAKVQWKVDNALQSGNSQESVTEQDSKDSTYSLSSTLTLSKADYEKHKVYACEVTHQGLSSPVTKSFNRGEC
On to B6, for which the binding result with hVar3 (RG3036) [9] is “no binding”.

B7: PI-HX-3017 (antibody, rat IgG1, V domains shown)
VH: EVQLVESGGGLVQPGRSLKFSCSASGFTFSAYSMAWVRQAPKTGLEWVATIIYDGSSTYYRDSVKGRFTISRDNAKNTLYLQMDSLRSEDTATYYCARLGYSGHYFDYWGQGVMVTVSS
VL: DTVLTQSPALAVSLGQRVTISCQASESVSSSLHSYLHWYQQKPGQQPKLLIYRASNLESGVPARFSGSGSGTDFTLNIDPVEADDIATYFCQQSWNDPRTFGGGTKLELK
notes: Rat IgG1 hybridoma antibody; also called PI-3009 (name of the recombinant form)
Take B7: the binding result in [7] and in [8] was “no binding” each time.

(Values after patent US20220153832A1 (PIONYR IMMUNOTHERAPEUTICS, published 2022).)
